Reference: patent US20200062856A1 (XDCEXPLORER SHANGHAI, published 2020)
Changes are numbered by the printed parent chain.

T1: human TPBG protein, full-length, on the cell surface (human, UniProt Q13641 32-420)
T1 sequence (looked up): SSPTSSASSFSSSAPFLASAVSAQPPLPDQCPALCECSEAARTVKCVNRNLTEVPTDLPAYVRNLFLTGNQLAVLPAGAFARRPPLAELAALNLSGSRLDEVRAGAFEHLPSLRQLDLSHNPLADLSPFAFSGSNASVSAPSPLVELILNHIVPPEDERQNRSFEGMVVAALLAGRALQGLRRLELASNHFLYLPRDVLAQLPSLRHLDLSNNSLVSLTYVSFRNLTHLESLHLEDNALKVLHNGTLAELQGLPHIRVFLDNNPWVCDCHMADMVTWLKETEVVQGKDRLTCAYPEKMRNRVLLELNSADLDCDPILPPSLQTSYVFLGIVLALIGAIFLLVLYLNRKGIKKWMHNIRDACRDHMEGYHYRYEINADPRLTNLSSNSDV

T2: cynomolgus TPBG protein, full-length, on the cell surface (cynomolgus, UniProt Q4R8Y9 35-420)
T2 construct: whole, on cells; also called cTPBG; CHOk1-cTPBG
T2 sequence (looked up): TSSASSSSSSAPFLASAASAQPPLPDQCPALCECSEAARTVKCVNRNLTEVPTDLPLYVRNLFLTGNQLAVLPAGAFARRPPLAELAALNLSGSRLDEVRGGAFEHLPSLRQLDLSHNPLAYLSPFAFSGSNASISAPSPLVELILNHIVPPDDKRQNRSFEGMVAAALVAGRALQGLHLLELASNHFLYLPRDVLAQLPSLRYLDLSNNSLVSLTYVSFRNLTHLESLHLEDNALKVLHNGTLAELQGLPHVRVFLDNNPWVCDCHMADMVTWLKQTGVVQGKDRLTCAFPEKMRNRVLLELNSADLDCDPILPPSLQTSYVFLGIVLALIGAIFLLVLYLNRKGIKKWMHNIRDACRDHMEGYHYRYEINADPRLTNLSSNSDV

T3: human TPBG-hFc protein (human, UniProt Q13641 32-355)
T3 construct: range 32-355; Expressed in HEK293 cells, purified on protein A; also called immunogen A; hFc tagged TPBG protein; not shown: human IgG Fc fragment of the pCpC vector
T3 sequence (looked up): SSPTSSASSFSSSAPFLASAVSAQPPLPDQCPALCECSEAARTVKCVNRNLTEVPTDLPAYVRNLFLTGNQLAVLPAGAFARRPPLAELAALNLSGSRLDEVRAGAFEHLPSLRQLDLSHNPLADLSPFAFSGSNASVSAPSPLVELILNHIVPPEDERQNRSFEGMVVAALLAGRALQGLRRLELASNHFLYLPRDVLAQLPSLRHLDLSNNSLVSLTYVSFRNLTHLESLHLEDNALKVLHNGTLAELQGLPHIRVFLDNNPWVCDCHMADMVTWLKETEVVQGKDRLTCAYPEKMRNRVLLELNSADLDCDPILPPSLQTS

T4: mouse TPBG protein, full-length, on the cell surface (mouse, UniProt Q9Z0L0 32-426)
T4 construct: whole, on cells; also called mTPBG; CHOk1-mTPBG
T4 sequence (looked up): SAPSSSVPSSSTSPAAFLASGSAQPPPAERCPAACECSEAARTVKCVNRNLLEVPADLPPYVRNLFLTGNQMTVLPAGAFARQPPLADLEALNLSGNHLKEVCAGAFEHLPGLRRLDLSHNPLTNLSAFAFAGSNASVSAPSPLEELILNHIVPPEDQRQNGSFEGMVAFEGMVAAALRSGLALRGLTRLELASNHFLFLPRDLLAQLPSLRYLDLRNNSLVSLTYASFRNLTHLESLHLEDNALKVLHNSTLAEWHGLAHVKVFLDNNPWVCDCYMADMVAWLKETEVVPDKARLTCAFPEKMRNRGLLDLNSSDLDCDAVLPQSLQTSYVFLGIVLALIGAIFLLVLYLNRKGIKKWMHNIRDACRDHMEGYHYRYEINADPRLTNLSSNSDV

T5: human TPBG antigen immobilized on a CM5 chip (human, UniProt Q13641 32-355, limits assumed)
T5 sequence (looked up): T3 sequence (looked up)

B1: Chimeric Antibody 28D4-MMAF (antibody, V domains shown)
VH: DVQLVESGGGLVRPGGSLKLSCAASGFTFSNYVMSWARQSPEKRLEWVAEISTGGSHTYYSDTVTGRFTISRDNAKKALYLEMSSLRSEDTAIYYCIMFYYGSSYSMDYWGQGTSVTVSS
VL: DIQMTQSTSSLSASLGDRITISCRASQDIRNYLNWYQQKPDGTVKLLIYHTSRLHSGVPSRFSGSGSGTDYSLTISNLEQEDIATYFCQQGDTLPLTFGAGTRLELK
modifications: MC-MMAF on cysteines reduced with TCEP (sites not given), DAR 3.0-5.0 per antibody
B2: Humanized Antibody 28D4-3-MMAF (antibody, V domains shown)
VH: EVQLVESGGGLVKPGGSLRLSCAASGFTFSNYVMSWIRQAPGKGLEWVAEISTGGSHTYYSDTVTGRFTISRDNAKKSLYLQMNSLRAEDTAVYYCIMFYYGSSYSMDYWGQGTTVTVSS
VL: DIQMTQSPSSLSASVGDRVTITCRASQDIRNYLNWYQQKPGKAPKLLIYHTSRLHSGVPSRFSGSGSGTDFTFTISSLQPEDIATYYCQQGDTLPLTFGQGTRLEIK
modifications: MC-MMAF on cysteines reduced with TCEP (sites not given), DAR 3.0-5.0 per antibody
B3: Humanized Antibody 28D4-4-MMAF (antibody, V domains shown)
VH: B2 VH with I37A, G44R
VL: B2 VL
modifications: MC-MMAF on cysteines reduced with TCEP (sites not given), DAR 3.0-5.0 per antibody
B4: Humanized Antibody 28D4-7-MMAF (antibody, V domains shown)
VH: B2 VH
VL: B2 VL with F71Y
modifications: MC-MMAF on cysteines reduced with TCEP (sites not given), DAR 3.0-5.0 per antibody
B5: Chimeric antibody 28D4 (antibody, V domains shown)
VH: B1 VH
VL: B1 VL
notes: Mouse variable domains on human IgG1 heavy and human kappa light constant regions; also called c28D4; TPBG chimeric antibody 28D4
B6: Humanized Antibody 12B12-12-MMAE (antibody, V domains shown)
VH: EVQLVESGGGLVQPGGSLRLSCAASGFTFSNFGMHWVRQAPGKGLEWVSYISSGSTSFYYADTVKGRFTISRDNAKNSLYLQMNSLRDEDTAVYYCARTNSLLRGFFDAWGQGTTVTVSS
VL: DIVLTQTPLSLSVTPGQPASISCRASQSVSSSSYTYLHWYLQKPGQPPQLLIKSASNLESGVPDRFSGSGSGTDFTLKISRVEAEDVGVYYCQHSWEIPLTFGQGTKLEIK
modifications: MC-VC-PAB-MMAE on cysteines reduced with TCEP (sites not given), DAR about 3.0-5.0 per antibody
B7: Humanized Antibody 12B12-12-DM1 (antibody, V domains shown)
VH: B6 VH
VL: B6 VL
modifications: SMCC-DM1 (sites not given), DAR about 3.0-5.0 per antibody
B8: Humanized antibody 28D4-8 (antibody, V domains shown)
VH: B2 VH with I37A, G44R
VL: B2 VL with F71Y
notes: also called h28D4-8
B9: Humanized antibody 28D4-12 (antibody, V domains shown)
VH: B2 VH with I37A, G44R
VL: B2 VL with A43T, P44V, F71Y, Y87F
notes: also called h28D4-12
B10: Humanized antibody 12B12-4 (antibody, V domains shown)
VH: B6 VH
VL: DIVLTQSPDSLAVSLGERATINCRASQSVSSSSYTYLHWYQQKPGQPPKLLIKSASNLESGVPDRFSGSGSGTDFTLTISSLQAEDVAVYYCQHSWEIPLTFGQGTKLEIK
notes: also called h12B12-4
B11: Humanized antibody 12B12-5 (antibody, V domains shown)
VH: B6 VH with A97S
VL: B10 VL
notes: also called h12B12-5
B12: Humanized antibody 12B12-16 (antibody, V domains shown)
VH: B6 VH with L11V, G16R, S49A, A75S, S78T, D88A, A97S
VL: B6 VL
notes: also called h12B12-16

The binders below were run against T1, human TPBG protein, full-length, on the … (assay: cell-based or functional assay).

Binder	IC50 of cell killing, NCI-H1568 cells (CellTiter-Glo, 5 days)
B1	0.091 nM
B2	0.061 nM
B3	0.074 nM
B4	0.066 nM

These binders were tested against T2, cynomolgus TPBG protein, full-length, … (assay: FACS on CHOK1-cTPBG cells).

EC50	Binder
0.94 nM	B5

Biological target: T1, human TPBG protein, full-length, on the …
Test: cell-based or functional assay
Remark: another data set of the same source

Binder	IC50 of cell killing, MDA-MB-468 cells (CellTiter-Glo, 5 days)	IC50 of cell killing, NCI-H1568 cells (CellTiter-Glo, 5 days)	IC50 of cell killing, NCI-H1975 cells (CellTiter-Glo, 5 days)
B6	0.27 nM	0.43 nM	1.2 nM
B7	0.44 nM	0.38 nM	5.93 nM

Each binder was assayed against T3, human TPBG-hFc protein (assay: ELISA, coated human TPBG-hFc).
Experimental: The purified human TPBG-hFc obtained from step (1) diluting with PBS to a final concentration of 1.0 μg/mL was aliquoted into a 96-well ELISA plate at 100 μL per well, and sealed with a parafilm and incubated at 4° C. overnight. The plate was washed twice with plate washing buffer (PBS containing 0.01% (v/v) Tween 20), and blocked with blocking buffer (PBS containing 0.01% (v/v) Tween 20 and 1% (w/w) BSA) at room temperature for 2 h. The blocking buffer was discarded, and […] per well of the purified antibody TPBG was added. After incubating at 37° C. for 2 h, the plate was washed for three times with plate washing buffer (PBS containing 0.01% (v/v) Tween 20). HRP (horseradish peroxidase)-labeled secondary antibody (purchased from Sigma) was added and incubated at 37° C. for 2 h, and the plate was washed for three times using plate washing buffer (PBS containing 0.01% (v/v) Tween 20). 100 μL of TMB substrate was aliquoted into each well, incubated at room temperature for 30 min, and 100 μL of stop buffer (1.0 N HCl) per well was subsequently added. A_{450 nm} values were read using the ELISA plate reader (SpectraMax 384plus purchased from Molecular Device), and the results were shown in Table 5. […] In Table 5 the IgG control herein is a mice IgG control, the data in the Table are OD_{450 nm} values, and Blank represents the OD_{450 nm} value of PBS buffer in the plate.
The purified humanized TPBG antibody obtained from Embodiment 1 was reacted with human TPBG-hFc, for the method, see (5) Identification of lead antibody in Embodiment 1. The EC50 in Table 11 and Table 12 are calculated according to the OD450 nm value of the h12B12 variants and the h28D4 variants, respectively. […] FIGS. 7A and 7B are the binding reactions of purified humanized h12B12 variants to human TBPG-hFc protein, and FIGS. 8A and 8B are the binding reactions of the purified humanized h28D4 variants to human TBPG-hFc protein.

EC50	Binder
0.165 nM	B5
0.162 nM	B8
0.167 nM	B9
0.227 nM	B10
0.253 nM	B11
0.2 nM	B12

These binders were tested against T4, mouse TPBG protein, full-length, on the … (assay: FACS on CHO-k1 cells with surface-expressed mouse TPBG, fluorescent secondary antibody, mean fluorescence intensity).

binding result	Binder
no binding (tested: 100 nM)	B5

These binders were tested against T5, human TPBG antigen immobilized on a CM5 … (assay: SPR (Biacore), human TPBG antigen immobilized on CM5 chip).
Experimental: To assess the binding specificity and affinity of the humanized anti-TPBG antibody, Biacore analysis was performed using human TPBG antigen immobilized on a CM5 chip. Biacore technique utilizes the change in the refractive index of surface layer after antibody binding to the TPBG antigen immobilized on the surface layer. The binding was determined by surface plasmon resonance (SPR) through detecting the laser refracted from the surface. Non-specific and specific interactions were distinguished by analysis of signal kinetics binding rate and dissociation rate. Chimeric antibodies 12B12 and 28D4 were used as controls.

Kd	koff	kon	Binder
0.013 nM	3.24e-05 s⁻¹	2.5e+06 M⁻¹ s⁻¹	B5
0.0296 nM	3.01e-05 s⁻¹	1.02e+06 M⁻¹ s⁻¹	B8
0.0381 nM	3.94e-05 s⁻¹	1.03e+06 M⁻¹ s⁻¹	B9
0.022 nM	3.46e-05 s⁻¹	1.58e+06 M⁻¹ s⁻¹	B10
0.0179 nM	2.1e-05 s⁻¹	1.17e+06 M⁻¹ s⁻¹	B11
0.0229 nM	3.65e-05 s⁻¹	1.59e+06 M⁻¹ s⁻¹	B12

These binders were tested against T1, human TPBG protein, full-length, on the … (assay: FACS on CHOK1-hTPBG cells).

EC50	Binder
0.33 nM	B5
